Data as given in publication PMC2824085.

What was measured:
[1] = biological target: Man9GlcNAc2 glycopeptide isolated from soybean agglutinin (soybean); assay: SPR; BiaCore 3000, CM5 chip; SBA or its glycopeptide amine-coupled, monomeric CRD of DC-SIGN flowed over; steady state, simple saturation model with linear background; 10 mM Hepes, 150 mM NaCl, 5 mM CaCl2, 0.005% P20, pH 7.4, 25 °C
[2] = biological target: monomeric carbohydrate-recognition domain (CRD) of rat macrophage galactose lectin (MGL) (rat) (UniProt P49301); assay: radioligand binding; competition: CRD or ECD of MGL coated on polystyrene wells, 125I-labeled Gal-BSA as reporter ligand, competing ligand titrated; KI = concentration for 50% inhibition
monomeric carbohydrate-recognition domain (CRD) of rat macrophage galactose lectin (MGL) (rat), sequence (P49301 165-306): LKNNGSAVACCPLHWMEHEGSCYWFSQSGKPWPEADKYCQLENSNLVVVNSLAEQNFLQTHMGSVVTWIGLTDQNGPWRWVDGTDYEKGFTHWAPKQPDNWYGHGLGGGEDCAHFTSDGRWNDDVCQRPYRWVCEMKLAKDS

[3] = biological target: trimeric extracellular domain (ECD) of rat macrophage galactose lectin (MGL) (rat) (UniProt P49301); assay: as above
trimeric extracellular domain (ECD) of rat macrophage galactose lectin (MGL) (rat), sequence (P49301 59-306, tags left off): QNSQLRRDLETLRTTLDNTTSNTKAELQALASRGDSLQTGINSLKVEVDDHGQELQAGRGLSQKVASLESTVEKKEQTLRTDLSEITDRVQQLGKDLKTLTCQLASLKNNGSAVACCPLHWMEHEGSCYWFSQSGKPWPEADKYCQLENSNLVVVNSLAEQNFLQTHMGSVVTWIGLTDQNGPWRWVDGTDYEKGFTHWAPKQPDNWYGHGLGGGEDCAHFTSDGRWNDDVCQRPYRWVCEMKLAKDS

[4] = biological target: monomeric carbohydrate-recognition domain (CRD) from DC-SIGN (UniProt Q9NNX6); assay: SPR; BiaCore 3000, CM5 chip; CRD of DC-SIGN immobilised, glycopeptide from SBA in the fluid phase; steady state; 10 mM Hepes, 150 mM NaCl, 5 mM CaCl2, 0.005% P20, pH 7.4, 25 °C
monomeric carbohydrate-recognition domain (CRD) from DC-SIGN, sequence (Q9NNX6 250-404): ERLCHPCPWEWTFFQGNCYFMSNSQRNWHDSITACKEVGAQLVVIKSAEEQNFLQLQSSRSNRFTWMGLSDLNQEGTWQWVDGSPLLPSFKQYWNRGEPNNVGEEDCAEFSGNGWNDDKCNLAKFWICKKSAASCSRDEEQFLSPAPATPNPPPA

[5] = biological target: monomeric carbohydrate-recognition domain (CRD) from DC-SIGN (UniProt Q9NNX6); assay: radioligand binding; competition: CRD of DC-SIGN immobilised on polystyrene wells, 125I-labeled mannose-BSA as reporter ligand, competing ligand titrated; KI = concentration for 50% inhibition

Substance | fold lower affinity than for intact SBA [1] [fold] | Ki [2] [µM] | Ki [3] [µM] | Kd [4] [µM] | Ki [5] [µM]
monomeric carbohydrate-recognition domain (CRD) from DC-SIGN (from UniProt Q9NNX6 250-404) (domain or fragment) | 15 | – | – | – | –
asialo-orosomucoid OR-5 (five glycosylation sites, expressed in Chinese hamster ovary cells) (from UniProt P02763 19-201) (natural protein) | – | 1.4 | 0.65 | – | –
desialylated tri-antennary glycopeptide isolated from fetuin | – | 260 | 160 | – | –

Further lines, results first:

fold lower affinity than for intact SBA [1] [fold] | Ki [2] [µM] | Ki [3] [µM] | Kd [4] [µM] | Ki [5] [µM] | Substance
– | 0.12 | 0.18 | – | – | asialo-orosomucoid derived from human blood (from UniProt P02763 19-201) (natural protein)
– | – | – | 76 | 68 | Man9GlcNAc2 glycopeptide isolated from soybean agglutinin
